Data on 1 substance can be found in paper PMC10104473.

This assay deals with TEA domain transcription factor 1 (TEAD1) on the HuProt Human Proteome Microarray v3.1 (human) (UniProt P28347). Nature of the assay: peptide or protein array; purified FLAG-Lamin A/C (WT or Q353R) applied to a HuProt Human Proteome Microarray v3.1; two samples each, averages of the pairs compared.
Chain of UniProt P28347 (P28347 whole entry, the tested form may be a part): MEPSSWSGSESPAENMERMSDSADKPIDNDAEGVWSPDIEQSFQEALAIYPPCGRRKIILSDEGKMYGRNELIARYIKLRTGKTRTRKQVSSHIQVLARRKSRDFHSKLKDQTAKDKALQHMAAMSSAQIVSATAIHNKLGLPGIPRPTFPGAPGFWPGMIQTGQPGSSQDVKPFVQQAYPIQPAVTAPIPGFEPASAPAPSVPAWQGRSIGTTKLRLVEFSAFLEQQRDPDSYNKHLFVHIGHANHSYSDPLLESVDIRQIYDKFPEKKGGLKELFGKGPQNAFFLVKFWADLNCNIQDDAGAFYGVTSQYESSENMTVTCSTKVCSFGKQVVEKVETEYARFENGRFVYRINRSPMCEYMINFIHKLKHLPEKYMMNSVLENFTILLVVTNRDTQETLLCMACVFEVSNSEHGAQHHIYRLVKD

“FLAG-tagged Q353R Lamin A/C (from UniProt P02545 1-646) (natural protein)” had a fold affinity against WT Lamin A/C of 8 fold.
